# In patent US20250163127A1 (published 2025):
# Changes are numbered by the printed parent chain.
# T1: human CD86 (human)
# T1 chain: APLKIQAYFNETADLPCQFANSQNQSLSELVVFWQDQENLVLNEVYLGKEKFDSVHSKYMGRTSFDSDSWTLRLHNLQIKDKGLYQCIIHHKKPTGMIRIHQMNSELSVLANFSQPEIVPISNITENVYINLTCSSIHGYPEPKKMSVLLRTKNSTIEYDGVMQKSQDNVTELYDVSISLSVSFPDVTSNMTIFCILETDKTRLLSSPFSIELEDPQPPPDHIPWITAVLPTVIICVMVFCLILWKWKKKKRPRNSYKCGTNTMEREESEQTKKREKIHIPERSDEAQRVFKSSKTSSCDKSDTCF
# B1: PD-L1 303-PD-L1 303-CD58 3650-CD58 3650 (other)
# chain: FTVTVPKDLYVVEYGSNMTIECKFPVEKQLDLAALIVYWEMEGKDIIQFVHGEEDQKAQHSSYRQRARLLKDQLSLGNAALQITDVKLQDAGVYRCMISYGGGADYKRITVKVNAGGGGSGGGGSGGGGSFTVTVPKDLYVVEYGSNMTIECKFPVEKQLDLAALIVYWEMEGKDIIQFVHGEEDQKAQHSSYRQRARLLKDQLSLGNAALQITDVKLQDAGVYRCMISYGGGADYKRITVKVNAGGGGSGGGGSGGGGSSQQIYGVVYGNVTFHVPSNVPLKEVLWKKQKDKVAELENSEFRAFSSFKNRVYLDTVSGSLTIYNLTSSDEDEYEMESPNITDTMKFFLYVLESGSGGSGGGGSGGGGSSQQIYGVVYGNVTFHVPSNVPLKEVLWKKQKDKVAELENSEFRAFSSFKNRVYLDTVSGSLTIYNLTSSDEDEYEMESPNITDTMKFFLYVLESGSGGGGSDYKDDDDKHHHHHH
# B2: CD58 3650-PD-L1 303-Fc (Fc fusion)
# chain: SQQIYGVVYGNVTFHVPSNVPLKEVLWKKQKDKVAELENSEFRAFSSFKNRVYLDTVSGSLTIYNLTSSDEDEYEMESPNITDTMKFFLYVLESGGGGSGGGGSGGGGSFTVTVPKDLYVVEYGSNMTIECKFPVEKQLDLAALIVYWEMEGKDIIQFVHGEEDQKAQHSSYRQRARLLKDQLSLGNAALQITDVKLQDAGVYRCMISYGGGADYKRITVKVNAGSGGGGSEPKSSDKTHTCPPCPAPEAEGAPSVFLFPPKPKDTLMISRTPEVTCVVVDVSHEDPEVKFNWYVDGVEVHNAKTKPREEQYNSTYRVVSVLTVLHQDWLNGKEYKCKVSNKALPAPIEKTISKAKGQPREPQVYTLPPSRDELTKNQVSLTCLVKGFYPSDIAVEWESNGQPENNYKTTPPVLDSDGSFFLYSKLTVDKSRWQQGNVFSCSVMHEALHNHYTQKSLSLSPG
# B3: PD-L1 303-CD58 3650-Fc (Fc fusion)
# chain: FTVTVPKDLYVVEYGSNMTIECKFPVEKQLDLAALIVYWEMEGKDIIQFVHGEEDQKAQHSSYRQRARLLKDQLSLGNAALQITDVKLQDAGVYRCMISYGGGADYKRITVKVNAGGGGSGGGGSGGGGSSQQIYGVVYGNVTFHVPSNVPLKEVLWKKQKDKVAELENSEFRAFSSFKNRVYLDTVSGSLTIYNLTSSDEDEYEMESPNITDTMKFFLYVLESGSGGGGSEPKSSDKTHTCPPCPAPEAEGAPSVFLFPPKPKDTLMISRTPEVTCVVVDVSHEDPEVKFNWYVDGVEVHNAKTKPREEQYNSTYRVVSVLTVLHQDWLNGKEYKCKVSNKALPAPIEKTISKAKGQPREPQVYTLPPSRDELTKNQVSLTCLVKGFYPSDIAVEWESNGQPENNYKTTPPVLDSDGSFFLYSKLTVDKSRWQQGNVFSCSVMHEALHNHYTQKSLSLSPG
# B4: CTLA-4 3037-Fc-PD-L1 303 (SEQ ID NO 3670) (Fc fusion)
# chain: KAMHVAQPAVVLASSRGIASFVCEYASPWKATEVRVTVLRQADSQVTEVCAATYMMGSELTFPDDSICTGTSSGNQVNLTIRGLRAMDTGLYICKVEQMYPPPYLLGIGNGTQIYVIDPEPCPDSDGSGGGGSEPKSSDKTHTCPPCPAPEAEGAPSVFLFPPKPKDTLMISRTPEVTCVVVDVSHEDPEVKFNWYVDGVEVHNAKTKPREEQYNSTYRVVSVLTVLHQDWLNGKEYKCKVSNKALPAPIEKTISKAKGQPREPQVYTLPPSRDELTKNQVSLTCLVKGFYPSDIAVEWESNGQPENNYKTTPPVLDSDGSFFLYSKLTVDKSRWQQGNVFSCSVMHEALHNHYTQKSLSLSPGGGGGSGGGGSGGGGSFTVTVPKDLYVVEYGSNMTIECKFPVEKQLDLAALIVYWEMEGKDIIQFVHGEEDQKAQHSSYRQRARLLKDQLSLGNAALQITDVKLQDAGVYRCMISYGGGADYKRITVKVNA
# B5: CTLA4 3037-Fc-PD-L1 303 (SEQ ID NO 3672) (Fc fusion)
# chain: KAMHVAQPAVVLASSRGIASFVCEYASPWKATEVRVTVLRQADSQVTEVCAATYMMGSELTFPDDSICTGTSSGNQVNLTIRGLRAMDTGLYICKVEQMYPPPYLLGIGNGTQIYVIDPEPCPDSDGSGGGGSEPKSSDKTHTCPPCPAPEAEGAPSVFLFPPKPKDTLMISRTPEVTCVVVDVSHEDPEVKFNWYVDGVEVHNAKTKPREEQYNSTYRVVSVLTVLHQDWLNGKEYKCKVSNKALPAPIEKTISKAKGQPREPQVYTLPPSRDELTKNQVSLTCLVKGFYPSDIAVEWESNGQPENNYKTTPPVLDSDGSFFLYSKLTVDKSRWQQGNVFSCSVMHEALHNHYTQKSLSLSPGGGGGSGGGGSGGGGSAFTVTVPKDLYVVEYGSNMTIECKFPVEKQLDLAALIVYWEMEGKDIIQFVHGEEDQKAQHSSYRQRARLLKDQLSLGNAALQITDVKLQDAGVYRCMISYGGGADYKRITVKVNA
# B6: CTLA-4 3037-PD-L1 303-Fc (SEQ ID NO 3666) (Fc fusion)
# chain: KAMHVAQPAVVLASSRGIASFVCEYASPWKATEVRVTVLRQADSQVTEVCAATYMMGSELTFPDDSICTGTSSGNQVNLTIRGLRAMDTGLYICKVEQMYPPPYLLGIGNGTQIYVIDPEPCPDSDGSGGSGGGGSGGGGSFTVTVPKDLYVVEYGSNMTIECKFPVEKQLDLAALIVYWEMEGKDIIQFVHGEEDQKAQHSSYRQRARLLKDQLSLGNAALQITDVKLQDAGVYRCMISYGGGADYKRITVKVNAGGGGSGSGGGGSEPKSSDKTHTCPPCPAPEAEGAPSVFLFPPKPKDTLMISRTPEVTCVVVDVSHEDPEVKFNWYVDGVEVHNAKTKPREEQYNSTYRVVSVLTVLHQDWLNGKEYKCKVSNKALPAPIEKTISKAKGQPREPQVYTLPPSRDELTKNQVSLTCLVKGFYPSDIAVEWESNGQPENNYKTTPPVLDSDGSFFLYSKLTVDKSRWQQGNVFSCSVMHEALHNHYTQKSLSLSPG
# B7: CTLA-4 3060-PD-L1 303-Fc (Fc fusion)
# chain: B6 chain with L12F, R16H, M56T, S58N, P63L, R82Q
# B8: PD-L1 303-CTLA-4 3037-Fc (SEQ ID NO 3668) (Fc fusion)
# chain: FTVTVPKDLYVVEYGSNMTIECKFPVEKQLDLAALIVYWEMEGKDIIQFVHGEEDQKAQHSSYRQRARLLKDQLSLGNAALQITDVKLQDAGVYRCMISYGGGADYKRITVKVNAGSGGSGGGGSGGGGSKAMHVAQPAVVLASSRGIASFVCEYASPWKATEVRVTVLRQADSQVTEVCAATYMMGSELTFPDDSICTGTSSGNQVNLTIRGLRAMDTGLYICKVEQMYPPPYLLGIGNGTQIYVIDPEPCPDSDGGGGSGSGGGGSEPKSSDKTHTCPPCPAPEAEGAPSVFLFPPKPKDTLMISRTPEVTCVVVDVSHEDPEVKFNWYVDGVEVHNAKTKPREEQYNSTYRVVSVLTVLHQDWLNGKEYKCKVSNKALPAPIEKTISKAKGQPREPQVYTLPPSRDELTKNQVSLTCLVKGFYPSDIAVEWESNGQPENNYKTTPPVLDSDGSFFLYSKLTVDKSRWQQGNVFSCSVMHEALHNHYTQKSLSLSPG
# B9: PD-L1 303-CTLA4 3060-Fc (Fc fusion)
# chain: B8 chain with L142F, R146H, M186T, S188N, P193L, R212Q
# B10: CTLA-4 3037-Fc (Fc fusion)
# chain: KAMHVAQPAVVLASSRGIASFVCEYASPWKATEVRVTVLRQADSQVTEVCAATYMMGSELTFPDDSICTGTSSGNQVNLTIRGLRAMDTGLYICKVEQMYPPPYLLGIGNGTQIYVIDPEPCPDSDGSGGGGSEPKSSDKTHTCPPCPAPEAEGAPSVFLFPPKPKDTLMISRTPEVTCVVVDVSHEDPEVKFNWYVDGVEVHNAKTKPREEQYNSTYRVVSVLTVLHQDWLNGKEYKCKVSNKALPAPIEKTISKAKGQPREPQVYTLPPSRDELTKNQVSLTCLVKGFYPSDIAVEWESNGQPENNYKTTPPVLDSDGSFFLYSKLTVDKSRWQQGNVFSCSVMHEALHNHYTQKSLSLSPG
# Molecular target: human PD-1 (human, UniProt Q15116)
# Experiment: flow cytometry, Jurkat/IL-2/PD-1 cells
row,EC50 [nM],Binder
1,2,B1
2,4.6,B2
3,1.2,B3

# Molecular target: CD2 (Homo sapiens (Human), UniProt P06729)
# Experiment: flow cytometry, CHO-CD2 cells
row,EC50 [nM],Binder
1,13.7,B1
2,2,B2
3,0.661,B3

# Molecular target: T1, human CD86
# Experiment: cell-based or functional assay
row,"100 nM IFN-gamma (pg/mL), SEB assay [pg/mL]",Binder
1,1570,B4
2,2070,B5
3,2050,B6
4,3790,B7
5,6100,B8
6,4470,B9
7,807,B10

# Molecular target: PD-1 (human, UniProt Q15116)
# Experiment: cell-based or functional assay
row,"100 nM IFN-gamma (pg/mL), SEB assay [pg/mL]",Binder
1,1570,B4
2,2070,B5
3,2050,B6
4,3790,B7
5,6100,B8
6,4470,B9
